The values that follow come from patent publication US20200237928A1 (UNIVERSITY OF MIAMI, published 2020).

Side-chain parts run from the residue outwards. [ ]: non-standard residue; d: D form. Abu = CC[C@H](N)C(=O)O; Ahx = NCCCCCC(=O)O

The target of experiment [1] is T1, recombinant mouse IL4Rα extracellular domain (Ile26-Arg233), cleaved by factor Xa from the IL4Rα/human IgG1 … (mouse, UniProt P16382 26-233).
T1 construct: range 26-233; Factor Xa cleavage in the IEGRMD spacer may leave some spacer residues at the C-terminus; Covalently linked to M-450 epoxy beads; also called recombinant IL4Rα; IL4Rα conjugated epoxybeads
T1 sequence (looked up): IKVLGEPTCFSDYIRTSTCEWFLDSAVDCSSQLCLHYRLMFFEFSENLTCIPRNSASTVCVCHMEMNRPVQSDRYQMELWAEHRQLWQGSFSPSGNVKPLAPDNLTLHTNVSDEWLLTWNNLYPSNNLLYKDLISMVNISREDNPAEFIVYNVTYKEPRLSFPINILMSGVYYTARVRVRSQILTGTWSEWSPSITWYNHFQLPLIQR
In words: FACS on IL4Rα-conjugated epoxybeads; 4PD against the FITC-peptide. The protocol: (§1) Epoxybeads were conjugated with recombinant IL4Rα and used as binding target of 4PD or of the targeting peptide. Briefly, the recombinant chimeric IL4Rα protein composed by the mouse IL4Rα (Ile26 Arg233) and the human IgG1 (Pro100 Lys330) linked by the IEGRMD spacer polypeptide and generated in the NSO myeloma cell line was purchased by R&D systems (Minneapolis, Minn., USA). The protein was treated for 24 hours with 1.5% w/w factor Xa (SIGMA. St. Louis, Mo., USA) in tris-HCl (20 mM) and NaCl (200 mM) to cleave the IL4Rα extracellular domain. Factor Xa was removed by the solution using the Factor Xa removal resin (QIAGEN, Valencia, Calif., USA) and following the manufacturer instruction. IgG-linker fraction was removed from the solution by using protein-A conjugated magnetic beads (Invitrogen, Carlsbad, Calif., USA). The purity obtained by this procedure assessed by SDS PAGE was higher than 95% with only trace of IgG (data not shown). The obtained IL4Rα fraction was linked to epoxy magnetic beads M-450 by an overnight (ON) incubation at room temperature (RT) of 20×10⁶ beads with 10 μg of protein in a final volume of 1 mL in a sodium phosphate buffer (pH:8.0). […] Correct conjugation was evaluated via FACs after labeling with an anti-IL4Rα antibody.
(§2) Next, the binding of the 4PD to the IL4Rα was evaluated. […] Beads were washed twice with PBS and the binding evaluated by FACS.

The target in experiment [2] is T1, recombinant mouse IL4Rα extracellular …. In words: FACS; Alexa555-shRNA/4PD complexes titrated on IL4Rα-conjugated epoxybeads, 10 min at RT; apparent Kd; peptide conjugated to the dendrimer (4PD). How it is done:
as §1, §2

B1: 4PD: G5 PAMAM dendrimer conjugated to the IL4Rα targeting peptide (acetyl)-LQRLFRAFR[Abu]LD[Ahx]C(amide), loaded with Alexa555-conjugated shRNA (other)
peptide: Ac-LQRLFRAFR[Abu]LD[Ahx]C([m‑maleimidobenzoyl-G5 PAMAM dendrimer])-NH2
modifications: also: several peptide copies on one G5 PAMAM dendrimer, complexed with Alexa555-labelled shRNA
notes: Not a plain protein: several copies of the peptide sit on a G5 PAMAM dendrimer (28,826 Da), complexed electrostatically with Alexa555-labelled scrambled shRNA; also called Alexa555-shRNA/4PD complexes; 4PD/Alexa555 complexes
With B1, the “fold increase of apparent Kd (avidity) against the free peptide” value in experiment [1] is about 1000 times. Also, the Kd in experiment [2] was 3000 nM.
